{"source": "patent US20110008369A1", "molecular_target": "human PD-1 (Programmed Cell Death 1), expressed on cells (human) (UniProt Q15116)", "sequence (Q15116 25-288 limits assumed)": "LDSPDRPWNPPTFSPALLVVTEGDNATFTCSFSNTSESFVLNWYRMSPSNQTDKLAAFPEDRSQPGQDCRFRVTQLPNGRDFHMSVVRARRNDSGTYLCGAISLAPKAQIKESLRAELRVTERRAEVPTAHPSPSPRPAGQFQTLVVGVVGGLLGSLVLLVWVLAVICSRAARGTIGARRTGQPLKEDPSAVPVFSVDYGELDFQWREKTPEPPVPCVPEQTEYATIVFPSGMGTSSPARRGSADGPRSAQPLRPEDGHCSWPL", "test": "cell binding; 0.2 ug/ml IgG on activated human CD4+ cells, 37 C"}
{"binder": "mAb 6D10 (antibody, part only; not given: light chain variable domain, V domains shown, part only) VH: EVKLVESGGGLVQPGGSRKLSCAASGFTFSSFGMHWVRQAPEKGLEWVAYVSSASSVIHYADTVKGRFTISRDNPKNTLFLQMTSLRSEDTAMYYCARSGYYGTWFPYWGQGTLVTVS", "values": [{"measurement": "MFI", "result": 133, "unit": "MFI"}]}
